The supplement of paper PMC12042874
± gives the uncertainty stated by the source.

Assay: amyloid nucleation score (Sup35N fusion, yeast selection) (log enrichment); library NNK2; higher = more nucleation; inactive = no reads after selection
Method in brief: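 Plasmid inserts were Illumina-sequenced at input and output from psi-negative yeast expressing Sup35N fused to peptides of 20 random codons. The yeast were induced with 100 μM copper sulfate for 24 hours and grown 7 days at 30°C on medium lacking adenine and uracil, and sequences with under 100 input reads were excluded. Nucleation score is the DiMSum log enrichment of output over input reads, centred on the mode score of non-aggregating sequences.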

Substance	amyloid nucleation score
TDNHFVTRCTYVAFQLTYKV	-0.375 ± 1.1
TDSRFLWGSKRNHCVRWCML	-0.242 ± 1.1
TDVFCLDKSVQTRILTEVAT	-0.439 ± 0.41
TDYVRHKRRNYCLL	1.12 ± 0.43
TEDVDL	1.5 ± 0.2
TERLICMRTSMPSFIYVFWD	-0.847 ± 0.54
TEVGCYFYTWRICIYNDTRA	2.28 ± 0.11
TFCVNFARRVSLRSVLATIG	0.034 ± 0.43
TFDLQFELFMGDRTLSLL	-0.038 ± 0.29
TFFLITDTSVMEEM	0.072 ± 0.79
TFGCEPVGPVA	0.409 ± 0.8
TFGLA	1.06 ± 0.4
TFGTQELELTD	inactive
TFKVVSKDNI	-0.317 ± 0.41
TFLWLLLY	6.754 ± 0.034
TFMTAMVVWSVSLGYPLLRR	1.24 ± 0.23
TFNVYTVSLDVCDYRGGHGL	6.602 ± 0.049
TFNYHVTYFLGHFFSTYGRF	3.49 ± 0.064
TFRDYQYMYFRSRNII	0.034 ± 1.1
TFRPFQVTSHVSLRDMMGIS	0.132 ± 0.3
TFSCCACWGCFTRNV	10.55 ± 0.047
TFSLAVVYRFDDAFTLRVGD	6.135 ± 0.05

Substance	amyloid nucleation score
TFSWMTPNWRSHYMLDCDPG	-0.502 ± 0.79
TFWTANISSADTSSFFY	0.272 ± 0.34
TGAVKLTSAAIINCTYHARM	inactive
TGAWLALFLGRHAKWLALFM	0.817 ± 0.26
TGCLLWCLLSMEGRESFQDD	-0.504 ± 0.78
TGCTFCKSMCLYGETSRKDN	0.132 ± 0.36
TGDCRT	0.233 ± 0.2
TGDSVGLGLLGSWRNEKVCD	0.088 ± 0.3
TGGTVMRVR	0.297 ± 0.29
TGIDHYFWLFFSYLGTLWSK	inactive
TGKLCSSIKWWGT	1.06 ± 0.39
TGLVFYSSRFYVTVSMVLKE	inactive
TGLYFLNSWIIMLRL	4.434 ± 0.033
TGQSHFSWQYLRTAAVYSRR	0.569 ± 0.27
TGRWCVVGHRKSS	-0.056 ± 0.34
TGYFTARNSAEVKRHVNLKR	0.169 ± 0.8
TGYHNLMGVLGMVAVKHELG	-0.09 ± 0.25
THLLIIDIVKYRKHIL	0.255 ± 1.1
THYTDIIFFQEGLY	inactive
TIALPNFVWPKSSRKVYFS	-0.748 ± 0.32
TIGHCTEWAINMSYVFNRGY	3.74 ± 0.053
TIGPNKMRVEAGLEFQKLGK	-1.23 ± 0.76

Substance	amyloid nucleation score
TIHSSPTVGLGNIWFVTNSH	6.87 ± 0.052
TIKLYRNMWEQLVQTEPSRT	0.045 ± 0.79
TINMNIYFIVRVDPSFDNVV	6.88 ± 0.064
TINTAMWTWSITETLPYCTW	4.03 ± 0.06
TISIFGM	-0.325 ± 0.33
TISWFLETYVRSLFPRVGRG	-0.035 ± 0.33
TISYKELLFANRFRELQPAD	0.299 ± 0.49
TITCLFKVRRCVYV	-0.325 ± 0.55
TITPKSSICNPLRDNSYSVV	0.136 ± 0.65
TIVLGSPANHHTLKCKERGK	0.197 ± 0.56
TIYWECYMDILARSGAMWVW	-1.34 ± 0.49
TKNACMPRGQGRMAPLRCCL	0.857 ± 0.51
TLDGMQMSWFRNGV	3.93 ± 0.13
TLDYGIFTVVNSTLWLYRSV	inactive
TLFRKL	-0.543 ± 0.44
TLGTIPIWTEIRPEYNSPLM	0.371 ± 0.51
TLIIWLTSICVVSGFVLSGE	0.137 ± 0.25
TLKYSVVNTLMTSMHDF	3.56 ± 0.082
TLLDKLK	inactive
TLLSTEMHDYKLLARQRCHP	1.24 ± 0.38
TLLVKSKDYRNANSG	0.185 ± 0.5
TLNRTW	0.166 ± 0.16

Substance	amyloid nucleation score
TLNYSVEQPYAVIILGCKLA	3.56 ± 0.083
TLRVS	-0.207 ± 0.36
TLSSYLVALNQRGAGSLWYV	0.825 ± 0.8
TLVLFGTLISMLQL	6.24 ± 0.073
TLWVDRVREMC	-0.809 ± 0.36
TLYQCEEDMSGYDNVNDLAY	-0.331 ± 0.27
TMDNISSNSFDACSICSYWY	9.385 ± 0.081
TMDYRTND	0.443 ± 0.23
TMGGSGDGRY	inactive
TMGYNFRCYVPLMNMLVRGV	-0.614 ± 0.54
TMILKWESRCERGPGEVRLV	6.204 ± 0.052
TMRHQNASWLGVYINSSRKY	3.72 ± 0.078
TMYYRNRGLVSEPKNYNGNE	-0.246 ± 0.61
TNCSYMMYAAKVSQKYPPFP	-0.567 ± 1.1
TNIYLGMIVRVHLLFLMELA	-0.891 ± 1.1
TNLFVSLPQPSVVKSSGSLQ	0.212 ± 0.31
TNRNKRWRYLTLFV	0.545 ± 0.37
TNSGMWGKLSACFYFVMQYL	-0.936 ± 0.27
TNSRRCSYSLTPPSGTNRCQ	-0.053 ± 0.54
